Here are results for 18 sequences from the DeepSol protein solubility set.

The nature of the data set: soluble on expression in E. coli; label from the status in PepcDB or PDB records.
Consider “MGSDKIHHHHHHMKLHQGERVSFVKTIPSLQETEFSRLEERLCFAKHAHPTYSIGIMPLGLSLCQGEGETYFMGRHKVCVYHPGEEHTCVFEHTGGSWAYWNCYPKEEMLREYASEILGERGEPHFAKTVVEDPYAYRLFWELFDLVGKERELLALQEASLKAFSYLIAHHASPWHPSSRFLLMERAKITQAKERILEGDEVEKITLEELASLCGMSRFRFLRLFAKLEGMTPHRFLLMHKTQKAKRYLQEGCDISEAALLSGFCDQAHLSRTLRRFYGYTPRSLRS”, for which the “soluble on expression in E. coli” value is on record as “not soluble”. In the case of “MAQRVQLTATVSENQLGQRLDQALAEMFPDYSRSRIKEWILDQRVLVNGKVCDKPKEKVLGGEQVAINAEIEEEARFEPQDIPLDIVYEDEDIIIINKPRDLVVHPGAGNPDGTVLNALLHYYPPIADVPRAGIVHRLDKDTTGLMVVAKTVPAQTRLVESLQRREITREYEAVAIGHMTAGGTVDEPISRHPTKRTHMAVHPMGKPAVTHYRIMEHFRVHTRLRLRLETGRTHQIRVHMAHITHPLVGDPVYGGRPRPPKGASEAFISTLRKFDRQALHATMLRLYHPISGIEMEWHAPIPQDMVELIEVMRADFEEHKDEVDWL”, the “soluble on expression in E. coli” value is on record as “soluble”.

“VSEIKTLVTFFGGTGDLAKRKLYPSVFNLYKKGYLQKHFAIVGTARQALNDDEFKQLVRDSIKDFTDDQAQAEAFIEHFSYRAHDVTDAASYAVLKEAIEEAADKFDIDGNRIFYMSVAPRFFGTIAKYLKSEGLLADTGYNRLMIEKPFGTSYDTAAELQNDLENAFDDNQLFRIDHYLGKEMVQNIAALRFGNPIFDAAWNKDYIKNVQVTLCEVLGVEERAGYYDTAGALLDMIQNHTMQIVGWLAMEKPESFTDKDIRAAKNAAFNALKIYDEAEVNKYFVRAQYGAGDSADFKPYLEELDVPADSKNNTFIAGELQFDLPRWEGVPFYVRSGKRLAAKQTRVDIVFKAGTFNFGSEQEAQEAVLSIIIDPKGAIELKLNAKSVEDAFNTRTIDLGWTVSDEDKKNTPEPYERMIHDTMNGDGSNFADWNGVSIAWKFVDAISAVYTADKAPLETYKSGSMGPEASDKLLAANGDAWVFKG”: the “soluble on expression in E. coli” value was “soluble”.

For “MGSDKIHHHHHHMVDFNNTLESAVKSVLKWEEKQIITETTIIRDVQGKVSLFLKSEQKATESDISNLEEILQNDLNGFFTGKIFWEKCDKKDKLRIEIIKSIIEESREEWKTEDGVDFYICERPIAKKAWVNATQDVEPVWQYQEAECSNKAKVVTFYSFKGGMGRTTALAGIALNLIEQNKNVMMIDMDIEAPGLSTLFFDDIVVEKGLLDYLIERPLNEQCDIHDYVLEVTDPALLKENDGNLYLMPAGKVDETYLQKLARIDYQDNRENNLKSSIKNLLEKLDNTYHPDYILIDARAGFHDMGGIAVAQIPHGAVLIGNGSKQSWDGMTQVIRTIAKGNTEEFSIMIVDSMCERATAERAIEQRKKFLNMAYTVCMENYYNEDQVMPGIDAEGVEHQPEYIPYDSELMQGFELFSDGYNDSEIRVQAYRDLLTGSAYKDITKRIQSWFGE”, the “soluble on expression in E. coli” value is “not soluble”. In the case of “MHQLWTYDPAAGTVEVGAGTTNEGLVDGPGEEAWFAQPSGLAATADRLWLADSETSALRWVDLDGAVHTAVGTGLFDFGHRDGDAEQALLQHPLGVTALPDGSVAVSDTYNHALRRYDPATGEVTTLATDLREPSDAVLVGDDIVVVESARHRLTRLRLPEEAVRVASVAHRTQRAATEVAPGRLQLDVIFQAPAGQKLDTRYGPSTRLLVSSTPPELLLNGEGADPDLSRTLELNPAIPEGVLHVSAMAASCDDDPANEYPACHVHQQDWGVPVRLTEGGADRLPLVLAGMDALEHHHHHH” it was “not soluble”; in that of “MNGDVQSVIRGYLERAQVAKTMSDAGRWNEAGDLLRQLMTDVKSCKISASNRDEHDARNTFLRALEANLKLVQQNVRDEDDLHEAMTRQSGSPEPPADPDVWSKPSPPLPSSSKFGATKKGVGAAGPRPREISKSTSSMSTNPADVKPANPTQGILPQNSAGDSFDASAYDAYIVQAVRGTMATNTENTMSLDDIIGMHDVKQVLHEAVTLPLLVPEFFQGLRSPWKAMVLAGPPGTGKTLIARAIASESSSTFFTVSSTDLSSKWRGDSEKIVRLLFELARFYAPSIIFIDEIDTLGGQRGNSGEHEASRRVKSEFLVQMDGSQNKFDSRRVFVLAATNIPWELDEALRRRFEKRIFIPLPDIDARKKLIEKSMEGTPKSDEINYDDLAARTEGFSGADVVSLCRTAAINVLRRYFRYDTKSLRGGELTAAMESLKAELVRNIDFEAALQAVSPSAGPDTMLKCKEWCDSFGAM”, “not soluble”; in that of “MRRAELAGLKTMAWVPAESAVEELMPRLLPVEPCDLTEGFDPSVPPRTPQEYLRRVQIEAAQCPDVVVAQIDPKKLKRKQSVNISLSGCQPAPEGYSPTLQWQQQQVAQFSTVRQNVNKHRSHWKSQQLDSNVTMPKSEDEEGWKKFCLGEKLCADGAVGPATNESPGIDYVQIGFPPLLSIVSRMNQATVTSVLEYLSNWFGERDFTPELGRWLYALLACLEKPLLPEAHSLIRQLARRCSEVRLLVDSKDDERVPALNLLICLVSRYFDQRDLADEPSLEHHHHHH”, “soluble”.

For “MSLDSNSQSRSSSASSIGSESETGNAVVVFGYREAITKQILAYFAQFGEILEDLESELGDTETMRTPGYFFQQAPNRRRISREHGRTWTKLTYANHSSYLRALREHGTIYCGAAIGCVPYKHELISELSRDTYNSMNDVKQTNSISTNQLTQHNQSEVPKSNQTFETKPTNETERNQIKTPSAFGSDNKGNGSISSGRTKRRLSIKDGSSLFLSGTDNIFSTLDGQPTKKRMINRDRSLIGKISGWLFGWNDLEGHHHHHH”, the “soluble on expression in E. coli” value is given as “soluble”. With “MENTNEAAWILSIDKFRHNEGIINFSDQNRETAYHHTIKEINVALDNFSTKAGDNNMHLVKAKTSQGTELNWHGKFSLSPLKSSGDISFVSPLKIVSDYLQQRILFNITEGSLKVNSHYDFNFAGEQPQFIINNLMASISALEIRSRDDNKKIITSDELSVDLEQLSSLEHHHHHH”, the “soluble on expression in E. coli” value was “not soluble”. “VTSSPFKTIKSDEIFAAAQKLMPGGVSSPVRAFKSVGGQPIVFDRVKDAYAWDVDGNRYIDYVGTWGPAICGHAHPEVIEALKVAMEKGTSFGAPCALENVLAEMVNDAVPSIEMVRFVNSGTEACMAVLRIMRAYTGRDKIIKFEGCYHGHADMFLVKAGSGVATLGLPSSPGVPKKTTANTLTTPYNDLEAVKALFAENPGEIAGVILEPIVGNSGFIVPDAGFLEGLREITLEHDALLVFDEVMTGFRIAYGGVQEKFGVTPDLTTLGKIIGGGLPVGAYGGKREIMQLVAPAGPMYQAGTLSGNPLAMTAGIKTLELLRQPGTYEYLDQITKRLSDGLLAIAQETGHAACGGQVSGMFGFFFTEGPVHNYEDAKKSDLQKFSRFHRGMLEQGIYLAPSQFEAGFTSLAHTEEDIDATLAAARTVMSAL”: the “soluble on expression in E. coli” value is on record as “soluble”. As to “MGIRVVFERPQGGERAVLVQLALPGVDADKALAEFEELALSAKAEVLDCVLGARATPDAKYYVGKGKAEEIAHLVNMLDADLVLVNHELSPSQERNLERLFGCRVVDRSGLILDIFAQRARTFEGKLQVELAQLQHLSTRLIRGWTHLERQKGGIGLRGPGETQLETDRRLLRERIRYINKRLEKVRCSRDQNRQARRKASMPTVSLVGYTNAGKSTLFNVLTGEHTYVADQLFATLDPTMRKLELPGSSAAILADTVGFIRDLPHHLVEAFRATLEETQQADLLLHVIDISDPNWRETVFEVQKVLDELKVNNIPVIQVFNKIDLQEGWQPKIDYTEDSCKVWLSATTGAGLDLLKEAIATQLHGMILIEDIVIKPDQAKLRAQLYQLGAVLKESVDENGDWLMKIRITADQKRRLLSAAALEHHHHHH”, the “soluble on expression in E. coli” value is reported as “not soluble”. In the case of “MSLDGQEAAGILERARASVDPELRRAVDSLPGSMRRIALHHFGWEHADGTPAAGNAGKAIRPALVLAAVRALGGPQSSAVRAAAAVELIHNFTLLHDDVMDRDTTRRHRPTAWTVFGDADAILAGDALQALAHRLLAEDPHPASAAAAARLAACVIELCAGQHADTAMERRGPGEVTLDECLAMAEAKTGALLGCACALGALYAGAEEEDVEALDAFGREAGLAFQLIDDVIGIWGDPSRTGKPAGADLMARKKSLPVVAALAAGTPAAAELAELYAVPHQEGELERTVLAVERAGGRDWAQQQAADRMARAMHELSRAIPDPEAAGGLLALAEFVTRRSNEGHHHHHH” it was “soluble”.

For the sequence “MGSDKIHHHHHHAQDRAQQASELLDRLIAGQGDSVYVHLDDNIRKMLSVEMLNGLFKQLEQQAGKYQSHGEWNTEPINGMTVYYCDVKFERLPLRFLTAFNPDGKVNTIRFVPVPPEKTTPPTTSVQDKIKETDIQVCTGNFKLPGTLTLPKNGKDLPVVILVHGSGASDRDETVGANKPFRDLAYGLAERGIAVIRYDKRTKVYGADSAPAGKEITFDEESVDDALSAIKLARSIPTINPERIYILGHSLGGTLAPRIAQRSDKVPAGIILLAGAARPLEDLFISQVKFLASALPSTKDIEKEIAELQKQVDNVKRLGTDTFDITTPLPMNLSQAYWMLANQYKPLEVVRKLTLPILVLQGERDYQVTMQDFELWKSALAKHPNAIFKSYPRLNHLFQEGEGKSTPLEYSRPSSIPSYVTDDIAAFINRPKPGN”, the “soluble on expression in E. coli” value was “not soluble”. In the case of “GMGKEIEIERKTLVSKETFKRLISQLHIGEGDFKLQRNHYFETDDFQLKKQSSALRIREKEAIFTFTLKQPHPAGLLETNQTLSKQEAKLALESAHFPSGEVMDALRDLSIPISQLKHIGTLSTSRAEISYEQGILCLDHSSYLGIEDYEIEFEGTSEEHATVTFQEILKTFSISQVPTENKIQRFFSKKEKN”, the “soluble on expression in E. coli” value is “soluble”.

“MGSDKIHHHHHHMIPRNEYLENLISFRDKQLIKVVTGIRRCGKSTLFELYQDYLLQNDVKPEQIIAFNLEDGDWAEIENSKDLYELVKARLLPDRMNYVFLDEVQRVTDFQKAVDSLFIKKNCDVYITGSNAYLLSGELATLLSGRYVEIKMLPLSFKEYVSAFPPDSSIDRLYQDYIHNSSFPYTLELKRQKDIRQYLDGLYDSIVLKDIVARRRFPDLAMLQSVVRFLFDNIGNLCSTKKIADTMTSAGRKITVHTVESYLTALTDSFIFYRVGRYDVKGKQYLKTGDKYYAADMGLRYNALGTKKADAGHILENIVYLELLRRGYEVHIGKVGAAEIDFIAIGPEGEEYYQVAYTVMDADGKTLQRELAPLDAISDHNPKFLLTMDHGPLVSHNGIKQLNALDWLLK”: the “soluble on expression in E. coli” value was “not soluble”. In the case of “MIHGIGVDLIEIDRIQALYSKQPKLVERILTKNEQHKFNNFTHEQRKIEFLAGRFATKEAFSKALGTGLGKHVAFNDIDCYNDELGKPKIDYEGFIVHVSISHTEHYAMSQVVLEKSAF”, the “soluble on expression in E. coli” value is on record as “not soluble”. Consider “HMTHIDDYSTWDIVKATQYGIYERCRELVEAGYDVRQPDKENVTLLHWAAINNRIDLVKYYISKGAIVDQLGGDLNSTPLHWATRQGHLSMVVQLMKYGADPSLIDGEGCSCIHLAAQFGHTSIVAYLIAKGQDVDMMDQNGMTPLMWAAYRTHSVDPTRLLLTFNVSVNLGDKYHKNTALHWAVLAGNTTVISLLLEAGANVDAQNIKGESALDLAKQRKNVWMINHLQEARQAKGYDN”, for which the “soluble on expression in E. coli” value is recorded as “soluble”. Consider “MMAKDFYSAIEDRRSIYAISKEQVVSDEKIQEVIYHAVKHTPSAFNSQSARVVVLLGEQHDKLWDITKETLRKIVPENNFAPTEEKMNAFKSGYGTVLYFEDSEVVESLQANFALYKDNFPTWSQQSSGMLQFAIWTALEIEGFGATLQHYNPLIDEEVRKEWDVPANWKLIAQMPFGKPVVQAGEKEFQPLENRVKIYKLEHHHHHH”, for which the “soluble on expression in E. coli” value is on record as “soluble”.
